Legend:
[1] = SE-HPLC, chemical stability on storage; type: physicochemical
Protocol: A chemical stability study monitored the molecular integrity of the ADC products that could be impacted following 3 months storage at +40° C. (thermal stress accelerated degradation storage conditions). Samples stored at +40° C. were compared to samples stored at +5° C., as assessed by SE-HPLC, performed with the Acquity UPLC from WATERS® with a BEH200 SEC 1.7 μm column.

[2] = SE-HPLC, physical stability after freeze/thaw and shaking; type: physicochemical; conditions: physical stability study
Protocol: Physical stability was measured after a Freeze/Thaw (F/T) cycle in which ADC products are frozen at least 2 hours at −20° C. and thawed at least 1 hour at room temperature three times and tested 24 h after the last Freeze/Thaw cycle, and after shaking in which ADC products samples are shaken with a “vortex” 3 min at 3000 rpm and tested 24 h after this shaking stress application. […] Measurements were also made by SE-HPLC, performed with the Acquity UPLC from WATERS® with a BEH200 SEC 1.7 μm column. SE-HPLC is used to evaluate soluble and covalent/non-covalent aggregates levels and the proteic fragments that could be generated.

ADCETRIS ®
fragments, in words ([1]; chemical stability at 5° C.): significant levels of fragments | Fragments % ([1]; storage at 5° C., T1 W (1 week)): 1.77% | fragments, in words [2]: significant levels of fragments

— patent US9427478B2, “Enzymatic conjugation of polypeptides” (Innate Pharma, priority 2013, dated 2016)
